Tests used:
Type in all cases: cell-based, Saccharomyces cerevisiae
Hua2 [1] = assay: Deep mutational scanning of Abp1 SH3, Abp1-Hua2 DHFR-PCA (DMS score); details: for HUA2_MTX2 (frequency normalized to the reference condition): Abp1 SH3 amino acid mutation; for HUA2_MTX2 (frequency normalized to the reference condition) / HUA2_MTX2 (frequencies normalized to the reference condition): MTX2; for HUA2_MTX2 = frequencies normalized to the reference condition: Hua2, MTX2, amino acid format; for HUA2_MTX2 (frequencies normalized to the reference condition) / HUA2_MTX2: frequencies normalized to the reference condition; for HUA2_MTX2: amino acid level
Procedure, shortened: (§1)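 Yeast, genomic ABP1 SH3 single-codon mutant pool (58 positions, NNN) × DHFR F[3] prey; diploid selection, then 2 cycles PCA selection medium, 72 h, 30 °C each. Readout: Illumina sequencing of SH3 locus vs. unselected diploid reference (S2). Biological duplicates.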

Lsb3 = assay: Deep mutational scanning of Abp1 SH3, Abp1-Lsb3 DHFR-PCA (DMS score); details: for LSB3_MTX2 (frequency normalized to the reference condition): Abp1 SH3 amino acid mutation; for LSB3_MTX2 (frequency normalized to the reference condition) / LSB3_MTX2 (frequencies normalized to the reference condition): MTX2; for LSB3_MTX2 = frequencies normalized to the reference condition: Lsb3, MTX2, amino acid format; for LSB3_MTX2 (frequencies normalized to the reference condition) / LSB3_MTX2: frequencies normalized to the reference condition; for LSB3_MTX2: amino acid level
Procedure, shortened: as §1

Hua2 and Lsb3 [2] = assay: Deep mutational scanning quadrant of Abp1 SH3 (Hua2 and Lsb3 DMS scores); details: class of mutation by HUA2 and LSB3 DMS scores
Hua2 [3] = assay: Low-throughput liquid DHFR-PCA of selected Abp1 SH3 mutants (Fig. S3F); details: average
Description: Liquid DHFR-PCA low-throughput experiments were performed to validate the PPIs identified as affected by the SH3 domain deletions in the high-throughput solid DHFR-PCA screen (256 PPIs weaker or lost and 116 PPIs stronger or gained following domain deletions). Mating and the diploid selection were performed as described for the large-scale experiment, with the exception that the plates were in 384 formats. Following the second diploid selection, diploid cells were inoculated in a 96 v-shaped well plate using a robotically manipulated 96 pin tool in a synthetic complete medium with MSG at pH 6.0 with NAT and HPH. After 48 h of growth, optical density (OD) was read using a TECAN Infinite F200 Pro, and dilutions to 1 OD in sterile nanopure water were prepared. Cells were then diluted to 0.1 OD by combining 25 µl of cell suspension at OD = 1 and 225 µl of PCA selection media without agar in a 96-wells plate. Plates were incubated at 30 °C in a TECAN Infinite M Nano and OD was monitored each 15 min for 72 h. […]
Selected non-conserved positions (E6 , E13, N15 and N27) sensitivities to mutations for the Abp1-Hua2 PPI were tested in a low -throughput liquid DHFR -PCA assay. The growth of the mutants in the low -throughput experiment (average of four replicates of the total OD for each growth curve, y axis ) is compared to the mutants DMS score (x axis). […]

Abp1 (1xFLAG) = assay: Western blot expression level of Abp1 SH3 mutants (Fig. S3C-D)
Description: Precultures of yeast cells expressing baits fused with the DHFR F[1,2]-FLAG were grown overnight at 30 °C with agitation in synthetic complete medium. The next day, cells were expanded in synthetic complete medium to reach their exponential phase (OD600 of around 1.0), pelleted, and frozen at −80 °C. The equivalent of fifty OD600 of cells was resuspended in ice-cold yeast lysis buffer (10 mM Tris-HCl pH 7.4, 150 mM NaCl, 0.5 mM EDTA (Millipore Sigma), 1% Triton X-100 (Millipore Sigma), and one cOmplete Mini Protease Inhibitor Cocktail (Millipore Sigma) per 10 mL) with […] glass beads (Millipore Sigma) and disrupted at 4 °C by 10 cycles of 2 min vortexing and 2 min cooldown. The equivalent of […] of lysed cells was used for the immunoprecipitation of the bait proteins using FLAG-M2 agarose beads (Millipore Sigma). The beads were incubated with the cell lysates for 120 min at 4 °C with a slow rotation, followed by three washes with the yeast lysis buffer.
Protein extracts and affinity-purified baits from yeast and human lysed cells were migrated on 10% polyacrylamide gels. The separated proteins were then transferred to nitrocellulose membranes. Validation of correct protein loading was done with ponceau staining of the membranes. Before the primary antibody incubations, membranes were blocked in 5% milk. Protein signals were detected on an Amersham Imager 600RGB (GE Healthcare) following the incubation of the membranes with the appropriate HRP-conjugated secondary antibodies and the Clarity Western ECL Substrate (Bio-Rad). The antibodies used in this study are M2-HRP (A8592, Sigma, 1/50,000), rabbit anti-FLAG (F7425, Sigma, 1/1000), PAK (SC-881, Santa Cruz, 1/200), p130cas/BCAR1 (SC-860, Santa Cruz, 1/200), actin (Cell Signaling Technology, 1/2000), anti-mouse HRP (Cell Signaling Technology, 1/10,000) and anti-rabbit HRP (Cell Signaling Technology, 1/10,000). The quantification of the WB signals was performed with the Amersham Imager 600 analysis software (GE Healthcare). […]
C, WB comparing expression levels of selected Abp1 SH3 mutants with WT Abp1. An asterisk represents a stop codon, which inhibits translation of the 1xFLAG epitope. D, Quantification of the relative level of expression of Abp1 SH3 mutants by WB as in C, (log2 of Abp1 SH3 mutant/Abp1 WT ratio, WB relative level of expression of 0 for WT Abp1) compared to their DMS scores (Hua2 (left): Pearson’s r = -0.34, p-value = 0.46, Lsb3 […]
(right): Pearson’s r = -0.81, p-value = 0.03). […]
Most […]
interface residues sensitive to mutations, such as Y7, E13, E16, V3 1, D32, D34, L48 and Y53, specifically affect Hua2 PPI. See also Supplementary Table 4.

Hua2 and Lsb3 [4] = assay: Deep mutational scanning of Abp1 SH3: combined class (quadrant) from Abp1-Hua2 and Abp1-Lsb3 DHFR-PCA; details: class by DMS scores with Hua2 and Lsb3 (Neutral, Dest. both, Dest. Hua2, Dest. Lsb3)
Hua2 and Lsb3 [5] = assay: Deep mutational scanning of Abp1 SH3, quadrant by Hua2 and Lsb3 DMS scores
Hua2 and Lsb3 [6] = assay: Deep mutational scanning of Abp1 SH3, quadrant classification from Hua2 and Lsb3 DMS scores; details: class from hua2sc and lsb3sc
[7] = frequencies scaled to the synonymous mutation distribution, HUA2 prey
[8] = frequencies scaled to the synonymous mutation distribution, LSB3 prey
[9] = Hua2, frequencies scaled to the synonymous mutation distribution (DMS score)
[10] = Lsb3, frequencies scaled to the synonymous mutation distribution (DMS score)
[11] = Abp1-Hua2, frequencies scaled to the synonymous mutation distribution (DMS score)
[12] = Abp1-Lsb3, frequencies scaled to the synonymous mutation distribution (DMS score)

B1: ABP1 A3A (protein, UniProt P15891 2-592, looked up)
Actin-binding protein: ALEPIDYTTHSREIDAEYLKIVRGSDPDTTWLIISPNAKKEYEPESTGSSFHDFLQLFDETKVQYGLARVSPPGSDVEKIIIIGWCPDSAPLKTRASFAANFAAVANNLFKGYHVQVTARDEDDLDENELLMKISNAAGARYSIQTSSKQQGKASTPPVKKSFTPSKSPAPVSKKEPVKTPSPAPAAKISSRVNDNNDDDDWNEPELKERDFDQAPLKPNQSSYKPIGKIDLQKVIAEEKAKEDPRLVQKPTAAGSKIDPSSDIANLKNESKLKRDSEFNSFLGTTKPPSMTESSLKNDDDKVIKGFRNEKSPAQLWAERKAKQNSGNAETKAEAPKPEVPEDEPEGEPDVKDLKSKFEGLAASEKEEEEMENKFAPPPKKSEPTIISPKPFSKPQEPVKAEEAEQPKTDYKKIGNPLPGMHIEADNEEEPEENDDDWDDDEDEAAQPPLPSRNVASGAPVQKEEPEQEEIAPSLPSRNSIPAPKQEEAPEQAPEEEIEEEAEEAAPQLPSRSSAAPPPPPRRATPEKKPKENPWATAEYDYDAAEDNELTFVENDKIINIEFVDDDWWLGELEKDGSKGLFPSNYVSLGN
modifications: synonymous A3A codon
- HUA2_MTX2 (frequency normalized to the reference condition) (Hua2 [1]; HUA2 prey): 1.172
- hua2sc (DMS score) (Hua2 [1]; [7]): -0.4405
- LSB3_MTX2 (frequency normalized to the reference condition) (Lsb3; LSB3 prey): 1.292
- lsb3sc (DMS score) (Lsb3; [8]): -0.2087
- quadrant (Hua2 and Lsb3 [2]): Neutral

B2: E13E (protein, UniProt P15891 2-592, looked up)
Actin-binding protein: B1 Actin-binding protein
modifications: synonymous codon change E13E in SH3
- DMS score Hua2 (Hua2 [1]; Abp1-Hua2 DHFR-PCA, WT = 0, Fig. S3C-D): -0.2784
- DMS Score (Hua2 [1]; condition HUA2_MTX2, amino acid mutation format, Fig. S3F): 1.334
- DMS score Lsb3 (Lsb3; Abp1-Lsb3 DHFR-PCA, WT = 0, Fig. S3C-D): -0.3311
- ave_au (DMS validation) (Hua2 [3]): 78.0323 au
- Ratio Mutant/WT Flag (Abp1 (1xFLAG); Western blot Flag signal of mutant relative to WT): 0.6362
- Flag (2 bands) (Abp1 (1xFLAG); Western blot, Flag signal, 2 bands): 23257

B3: ABP1 T4T (protein, UniProt P15891 2-592, looked up)
Actin-binding protein: B1 Actin-binding protein
modifications: synonymous T4T codon change
- HUA2_MTX2 (frequency normalized to the reference condition) (Hua2 [1]; HUA2 prey): 1.763
- hua2sc (DMS score) (Hua2 [1]; [7]): 0.1499
- LSB3_MTX2 (frequency normalized to the reference condition) (Lsb3; LSB3 prey): 1.639
- lsb3sc (DMS score) (Lsb3; [8]): 0.1386
- quadrant (Hua2 and Lsb3 [2]): Neutral

B4: ABP1 N27N (protein, UniProt P15891 2-592, looked up)
Actin-binding protein: B1 Actin-binding protein
modifications: synonymous change N27N in SH3 domain
- HUA2_MTX2 (frequencies normalized to the reference condition) (Hua2 [1]; Abp1-Hua2 DHFR-PCA): 1.61
- hua2sc (DMS score) (Hua2 [1]; [9]): -0.002773
- LSB3_MTX2 (frequencies normalized to the reference condition) (Lsb3; Abp1-Lsb3 DHFR-PCA): 1.694
- lsb3sc (DMS score) (Lsb3; [10]): 0.1932
- quadrant (Hua2 and Lsb3 [4]): Neutral

B5: ABP1 G44G (protein, UniProt P15891 2-592, looked up)
Actin-binding protein: B1 Actin-binding protein
modifications: synonymous codon change G44G
- HUA2_MTX2 = frequencies normalized to the reference condition (Hua2 [1]): 1.505
- hua2sc = Frequencies scaled to the synonymous mutation distribution (DMS score) (Hua2 [1]; Hua2): -0.1077
- LSB3_MTX2 = frequencies normalized to the reference condition (Lsb3): 1.253
- lsb3sc = Frequencies scaled to the synonymous mutation distribution (DMS score) (Lsb3; Lsb3): -0.247
- quadrant (Hua2 and Lsb3 [5]): Neutral

B6: ABP1 E29E (protein, UniProt P15891 2-592, looked up)
Actin-binding protein: B1 Actin-binding protein
modifications: synonymous codon change E29E
- HUA2_MTX2 (frequencies normalized to the reference condition) (Hua2 [1]; Abp1-Hua2 DHFR-PCA): 1.834
- hua2sc (DMS score) (Hua2 [1]; [9]): 0.2208
- LSB3_MTX2 (frequencies normalized to the reference condition) (Lsb3; Abp1-Lsb3 DHFR-PCA): 1.788
- lsb3sc (DMS score) (Lsb3; [10]): 0.2879
- quadrant (Hua2 and Lsb3 [4]): Neutral

B7: ABP1 L37L (protein, UniProt P15891 2-592, looked up)
Actin-binding protein: B1 Actin-binding protein
modifications: synonymous codon change L37L in SH3
- hua2sc (DMS score) (Hua2 [1]; [11]): -0.0161
- HUA2_MTX2 (Hua2 [1]; Abp1-Hua2 DHFR-PCA): 1.597
- lsb3sc (DMS score) (Lsb3; [12]): 0.2222
- LSB3_MTX2 (Lsb3; Abp1-Lsb3 DHFR-PCA): 1.722
- quadrant (Hua2 and Lsb3 [6]): Neutral

B8: ABP1 S45S (protein, UniProt P15891 2-592, looked up)
Actin-binding protein: B1 Actin-binding protein
modifications: synonymous S45S codon change in SH3 domain
- HUA2_MTX2 = frequencies normalized to the reference condition (Hua2 [1]): 1.852
- hua2sc = Frequencies scaled to the synonymous mutation distribution (DMS score) (Hua2 [1]; Hua2): 0.2394
- LSB3_MTX2 = frequencies normalized to the reference condition (Lsb3): 1.916
- lsb3sc = Frequencies scaled to the synonymous mutation distribution (DMS score) (Lsb3; Lsb3): 0.4157
- quadrant (Hua2 and Lsb3 [5]): Neutral

B9: ABP1 K42K (protein, UniProt P15891 2-592, looked up)
Actin-binding protein: B1 Actin-binding protein
modifications: synonymous codon K42K
- hua2sc (DMS score) (Hua2 [1]; [11]): -0.1876
- HUA2_MTX2 (Hua2 [1]; Abp1-Hua2 DHFR-PCA): 1.425
- lsb3sc (DMS score) (Lsb3; [12]): 0.08611
- LSB3_MTX2 (Lsb3; Abp1-Lsb3 DHFR-PCA): 1.586
- quadrant (Hua2 and Lsb3 [6]): Neutral

Reference: article PMC7954794, “Protein context shapes the specificity of SH3 domain-mediated interactions in vivo” (Nature Communications, 2021)
